These results are taken from publication PMC10976854 (Cell, 2024).

The series deals with the molecule itself. The series can be described thus: crystal structure.

B1: mZP2-N2N3 (mouse ZP2 NTR ΔN1 construct) (domain or fragment, UniProt P20239 135-360, looked up)
chain: PAIQAETHEISEIVVCRRDLISFSFPQLFSRLADENQNVSEMGWIVKIGNGTRAHILPLKDAIVQGFNLLIDSQKVTLHVPANATGIVHYVQESSYLYTVQLELLFSTTGQKIVFSSHAICAPDLSVACNATHMTLTIPEFPGKLESVDFGQWSIPEDQWHANGIDKEATNGLRLNFRKSLLKTKPSEKCPFYQFYLSSLKLTFYFQGNMLSTVIDPECHCESPVS
Consider B1, for which the binding result is listed as “binds”.
